EP4635983A1 (Ymmunobio AG, dated 2025)
Where no end group is shown, it is not given here.

Experiments:
[1] = molecular target: T1, peptide (mNPTXR) representing the mouse NPTXR epitope space (mouse, also: biotinylated, position not given here); assay: ELISA, biotinylated mNPTXR peptide captured by streptavidin, antibody titrated from 10 ug/ml, anti-human IgG Fc-HRP detection
T1 construct: Immobilized on the ELISA plate by streptavidin capture; also called Bio-mNPTXR; Strep + Bio-mNPTXR
T1 peptide: CESGLPRGLQDAGPRRDT

[2] = molecular target: T2, recombinant human NPTXR (rhNPTXR; Ala24 to Ala500 of Acc no. #O95502) (human, UniProt O95502 24-500); assay: ELISA, rhNPTXR immobilized on plate, antibody titrated from 10 ug/ml, anti-human IgG Fc-HRP detection
T2 construct: range 24-500; Recombinant protein immobilized on the ELISA plate
T2 sequence (looked up): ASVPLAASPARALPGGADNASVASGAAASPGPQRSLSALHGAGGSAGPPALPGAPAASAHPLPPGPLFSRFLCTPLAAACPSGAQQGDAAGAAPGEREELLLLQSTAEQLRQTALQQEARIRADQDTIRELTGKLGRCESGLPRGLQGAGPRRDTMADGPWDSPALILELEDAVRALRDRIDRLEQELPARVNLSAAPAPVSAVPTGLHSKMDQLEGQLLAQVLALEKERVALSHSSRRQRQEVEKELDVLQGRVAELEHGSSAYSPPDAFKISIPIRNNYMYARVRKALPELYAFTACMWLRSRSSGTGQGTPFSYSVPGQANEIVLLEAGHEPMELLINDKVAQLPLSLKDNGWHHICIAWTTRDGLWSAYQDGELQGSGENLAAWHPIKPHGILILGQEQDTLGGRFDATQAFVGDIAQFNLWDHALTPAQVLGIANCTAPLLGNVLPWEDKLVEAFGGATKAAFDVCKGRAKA

EC50 [1]: 0.0309 µg/mL | EC50 [2]: 0.0271 µg/mL
B1: YB-800 (antibody, human IgG1, V domains shown)
VH: QVQLVQSGAEVKKPGASVKVSCKASGYTFTNYGMNWVRQAPGQRLEWMGWINTDIGEPTYSQKFQGRVTITRDTSASTAYMELSSLRSEDTAVYYCAREMDVWGQGTTVTVSS
VL: DIQMTQSPSSLSASVGDRVTITCRASQSISDYLHWYQQKPGKAPKLLIKYVSHSISGVPSRFSGSGSGTDFTLTISSLQPEDFATYYCLNGHSFPFTFGGGTKVEIK
